Experimental data taken from paper PMC11574045, “A cofactor-induced repressive type of transcription factor condensation can be induced by synthetic peptides to suppress tumorigenesis” (The EMBO Journal, 2024).

Test system: HEK293FT cells transfected with TF library
Experiment: Screening of TF condensates based on fluorescent puncta
Assay type: cell-based
Conditions: Figure 1B numerical data; TF library screen, one value per transcriptional factor
How it was run: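 HEK293FT cells were reverse-transfected with Flag- or GAL4-tagged TF plasmids (1.6 μg/ml, PEI). After 60 h, cells were cultured 12 h with or without glucose, then fixed and immunostained with anti-Flag or anti-GAL4 and Alexa 488 secondaries. Fluorescent puncta were imaged over fifty random fields per well by high-content imaging.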

Molecule	Z score of condensed fraction
ZKSCAN3 (protein, UniProt Q9BRR0 1-538, looked up) Zinc finger protein with KRAB …: MARELSESTALDAQSTEDQMELLVIKVEEEEAGFPSSPDLGSEGSRERFRGFRYPEAAGPREALSRLRELCRQWLQPEMHSKEQILELLVLEQFLTILPGNLQSWVREQHPESGEEVVVLLEYLERQLDEPAPQVSGVDQGQELLCCKMALLTPAPGSQSSQFQLMKALLKHESVGSQPLQDRVLQVPVLAHGGCCREDKVVASRLTPESQGLLKVEDVALTLTPEWTQQDSSQGNLCRDEKQENHGSLVSLGDEKQTKSRDLPPAEELPEKEHGKISCHLREDIAQIPTCAEAGEQEGRLQRKQKNATGGRRHICHECGKSFAQSSGLSKHRRIHTGEKPYECEECGKAFIGSSALVIHQRVHTGEKPYECEECGKAFSHSSDLIKHQRTHTGEKPYECDDCGKTFSQSCSLLEHHRIHTGEKPYQCSMCGKAFRRSSHLLRHQRIHTGDKNVQEPEQGEAWKSRMESQLENVETPMSYKCNECERSFTQNTGLIEHQKIHTGEKPYQCNACGKGFTRISYLVQHQRSHVGKNILSQ	0.9842
CARF (protein, UniProt Q9NXV6 2-580, looked up) CDKN2A-interacting protein: AQEVSEYLSQNPRVAAWVEALRCDGETDKHWRHRRDFLLRNAGDLAPAGGAASASTDEAADAESGTRNRQLQQLISFSMAWANHVFLGCRYPQKVMDKILSMAEGIKVTDAPTYTTRDELVAKVKKRGISSSNEGVEEPSKKRVIEGKNSSAVEQDHAKTSAKTERASAQQENSSTCIGSAIKSESGNSARSSGISSQNSSTSDGDRSVSSQSSSSVSSQVTTAGSGKASEAEAPDKHGSASFVSLLKSSVNSHMTQSTDSRQQSGSPKKSALEGSSASASQSSSEIEVPLLGSSGSSEVELPLLSSKPSSETASSGLTSKTSSEASVSSSVAKNSSSSGTSLLTPKSSSSTNTSLLTSKSTSQVAASLLASKSSSQTSGSLVSKSTSLASVSQLASKSSSQTSTSQLPSKSTSQSSESSVKFSCKLTNEDVKQKQPFFNRLYKTVAWKLVAVGGFSPNVNHGELLNAAIEALKATLDVFFVPLKELADLPQNKSSQESIVCELRCKSVYLGTGCGKSKENAKAVASREALKLFLKKKVVVKICKRKYRGSEIEDLVLLDEESRPVNLPPALKHPQELL	2.409
ZNF165 (protein, UniProt P49910 1-485, looked up) Zinc finger protein 165: MATEPKKAAAQNSPEDEGLLIVKIEEEEFIHGQDTCLQRSELLKQELCRQLFRQFCYQDSPGPREALSRLRELCCQWLKPEIHTKEQILELLVLEQFLTILPGDLQAWVHEHYPESGEEAVTILEDLERGTDEAVLQVQAHEHGQEIFQKKVSPPGPALNVKLQPVETKAHFDSSEPQLLWDCDNESENSRSMPKLEIFEKIESQRIISGRISGYISEASGESQDICKSAGRVKRQWEKESGESQRLSSAQDEGFGKILTHKNTVRGEIISHDGCERRLNLNSNEFTHQKSCKHGTCDQSFKWNSDFINHQIIYAGEKNHQYGKSFKSPKLAKHAAVFSGDKTHQCNECGKAFRHSSKLARHQRIHTGERCYECNECGKSFAESSDLTRHRRIHTGERPFGCKECGRAFNLNSHLIRHQRIHTREKPYECSECGKTFRVSSHLIRHFRIHTGEKPYECSECGRAFSQSSNLSQHQRIHMRENLLM	0.7106
CARHSP1 (protein, UniProt Q9Y2V2 2-147, looked up) Calcium-regulated heat-stable …: SSEPPPPPQPPTHQASVGLLDTPRSRERSPSPLRGNVVPSPLPTRRTRTFSATVRASQGPVYKGVCKCFCRSKGHGFITPADGGPDIFLHISDVEGEYVPVEGDEVTYKMCSIPPKNEKLQAVEVVITHLAPGTKHETWSGHVISS	2.822
ZNF174 (protein, UniProt Q15697 1-407, looked up) Zinc finger protein 174: MAAKMEITLSSNTEASSKQERHIIAKLEEKRGPPLQKNCPDPELCRQSFRRFCYQEVSGPQEALSQLRQLCRQWLQPELHTKEQILELLVMEQFLTILPPEIQARVRHRCPMSSKEIVTLVEDFHRASKKPKQWVAVCMQGQKVLLEKTGSQLGEQELPDFQPQTPRRDLRESSPAEPSQAGAYDRLSPHHWEKSPLLQEPTPKLAGTEAPRMRSDNKENPQQEGAKGAKPCAVSAGRSKGNGLQNPEPRGANMSEPRLSRRQVSSPNAQKPFAHYQRHCRVEYISSPLKSHPLRELKKSKGGKRSLSNRLQHLGHQPTRSAKKPYKCDDCGKSFTWNSELKRHKRVHTGERPYTCGECGNCFGRQSTLKLHQRIHTGEKPYQCGQCGKSFRQSSNLHQHHRLHHGD	-0.9036
